We go through 2 molecules from publication PMC12169211.

The Kd is the equilibrium constant for the complex coming apart. Low values mean tighter binding, high ones weaker binding.

The target in the data set is thrombin (biotinylated, immobilized on streptavidin microparticles) (UniProt P00734;P00734 328-363;364-622). Put plainly: microparticle flow cytometry; Thrombin-microparticles incubated with 0.5-200 nM FAM-aptamer, washed with DPBS, flow cytometry; binding buffer, pH and temperature not stated. In general terms: In flow cytometry, cells or beads pass a laser one at a time.

B1: hybrid bispecific aptamer without toehold (HBA; 15-mer-Sticky + 29-mer-Sticky) (structured_DNA)
DNA 1: GGTTGGTGTGGTTGGTTTTTGACCCTGCGTACC
DNA 2: AGTCCGTGGTAGGGCAGGTTGGGGTGACTTTTTTGGTACGCAGGTC
Molecule B1 registered a Kd of 4.8 nM.

B2: toehold hybrid bispecific aptamer (THBA; 15-mer-Sticky + 29-mer-Sticky-TH) (structured_DNA)
DNA 1: GGTTGGTGTGGTTGGTTTTTGACCCTGCGTACC
DNA 2: AGTCCGTGGTAGGGCAGGTTGGGGTGACTTTTTTGGTACGCAGGTCCGTTA
B2 returned a Kd of approximately 5.7 nM.
